Source: patent US10184115B2, “Mutated cellobiose dehydrogenase with increased substrate specificity” (DIRECTSENS GMBH, priority 2012, dated 2019)
Residue numbers refer to the chain shown, from its start. Numbers in names are those of the source.

How the values were obtained:
[1] = substrate: OC[C@H]1OC(O)[C@H](O)[C@@H](O)[C@@H]1O; assay: Steady-state kinetics, DCIP assay: M. thermophilum CDH W316L; format: biochemical, Myriococcum thermophilum; conditions: other: apparent, pH 4.5, 30° C., ~ values only estimated by non linear regression
Description: (§1) Enzyme activity was assayed at 30° C. using either the DCIP (Karapetyan et al., 2005 Journal of Biotechnology 121: 34-48) or cytochrome c (Canevascini et al., 1991, European Journal of Biochemistry 198: 43-52) as electron acceptor. […] Stock solutions of carbohydrates used for kinetic measurements were prepared in the respective buffer and allowed to stand overnight for mutarotation, while stock solutions of electron acceptors were prepared in water and immediately used. The reaction stoichiometry is 1 for the two-electron acceptor DCIP (1 mole of DCIP reduced per mole of carbohydrate oxidized), but 2 for the one-electron acceptor cytochrome c. Kinetic constants were calculated by fitting the observed data to the Henri-Michaelis-Menten equation or to the adapted model for substrate inhibition using nonlinear least-squares regression and the program SigmaPlot (Systat Software, San Jose, Calif., USA). […]
(§2) Recombinant wild-type CDH as well as variants were produced in 1 L baffled flasks. […] Increase in activity was monitored using the DCIP and the cytochrome c enzyme assays. […]
(§3) Enzymes were purified to homogeneity in a two-step purification. […] Fractions were tested for CDH activity and pooled according to the highest Reinheitszahl (RZ, calculated from the absorbance ratio 420 nm/280 nm). […]

[2] = substrate: OC[C@H]1OC(O)[C@H](O)[C@@H](O)[C@@H]1O; assay: Steady-state kinetics, DCIP assay: M. thermophilum CDH W316R; format: biochemical, Myriococcum thermophilum; conditions: other: apparent, pH 4.5, 30° C., ~ values only estimated by non linear regression
Description: as §1, §2, §3

[3] = substrate: OC[C@H]1OC(O)[C@H](O)[C@@H](O)[C@@H]1O; assay: Steady-state kinetics, DCIP assay: M. thermophilum CDH R622N; format: biochemical, Myriococcum thermophilum; conditions: other: apparent, pH 4.5, 30° C., ~ values only estimated by non linear regression
Description: as §1, §2, §3

[4] = substrate: OC[C@H]1OC(O)[C@H](O)[C@@H](O)[C@@H]1O; assay: purified protein, by the assay type; conditions: other: apparent, wt, DCIP assay, pH 5.5, 30° C.
[5] = substrate: OC[C@H]1O[C@H](O[C@H]2[C@H](O)[C@@H](O)C(O)O[C@@H]2CO)[C@H](O)[C@@H](O)[C@@H]1O; assay: purified protein, by the assay type; conditions: other: apparent, wt, DCIP assay, pH 5.5, 30° C.
Description: Enzyme activity was assayed at 30° C. using either the DCIP (Karapetyan et al., 2005 Journal of Biotechnology 121: 34-48) or cytochrome c (Canevascini et al., 1991, European Journal of Biochemistry 198: 43-52) as electron acceptor. […] Stock solutions of carbohydrates used for kinetic measurements were prepared in the respective buffer and allowed to stand overnight for mutarotation, while stock solutions of electron acceptors were prepared in water and immediately used. The reaction stoichiometry is 1 for the two-electron acceptor DCIP (1 mole of DCIP reduced per mole of carbohydrate oxidized), but 2 for the one-electron acceptor cytochrome c. Kinetic constants were calculated by fitting the observed data to the Henri-Michaelis-Menten equation or to the adapted model for substrate inhibition using nonlinear least-squares regression and the program SigmaPlot (Systat Software, San Jose, Calif., USA).
Enzymes were purified to homogeneity in a two-step purification. The sample was loaded on a 20 mL PHE Sepharose FF column (HR26/20) equilibrated with 50 mM Na-acetate buffer pH 5.5 containing 20% ammonium sulfate. Proteins were eluted by increasing the concentration of the elution buffer (50 mM Na-acetate buffer pH 5.5) from 0 to 100% in 5 column volumes and fractions containing CDH activity were pooled. After diafiltration with a polyethersulfone flat-stack cross flow module with a cut-off of 10 kDa (Viva Flow 50, Sartorius, Göttingen, Germany) until conductivity of 5 mS cm^−1 in 20 mM Na-acetate pH 5.5 the samples were loaded on a 20 mL Q-Source column (HR26/20) equilibrated with a 20 mM Na-acetate buffer pH 5.5. CDH was eluted by increasing the concentration of the elution buffer (50 mM Na-acetate buffer pH 5.5 containing 0.5 M NaCl) from 0 to 100% in 50 column volumes. Fractions were tested for CDH activity and pooled according to the highest Reinheitszahl (RZ, calculated from the absorbance ratio 420 nm/280 nm). Purified enzymes were concentrated and diafiltered in 50 mM citrate buffer, pH 5.5, aliquoted and kept at 4° C. for further use.

B1: Myriococcum thermophilum cellobiose dehydrogenase (CDH, SEQ ID NO: 1) variant W316L (Thermothelomyces myriococcoides; W316L) (protein)
chain: QNNVPNTFTDPDSGITFNTWGLDEDSPQTQGGFTFGVALPSDALTTDASEFIGYLKCARNDESGWCGISLGGPMTNSLLITAWPHEDTVYTSLRFATGYAMPDVYEGDAEITQVSSSVNSTHFSLIFRCKNCLQWSHGGSSGGASTSGGVLVLGWVQAFDDPGNPTCPEQITLQQHDNGMGIWGAQLNTDAASPSYTDWAAQATKTVTGDCEGPTETSVVGVPVPTGVSFDYIVVGGGAGGIPAADKLSEAGKSVLLIEKGFASTANTGGTLGPEWLEGHDLTRFDVPGLCNQILVDSKGIACEDTDQMAGCVLGGGTAVNAGLWFKPYSLDWDYLFPDGWKYNDVQPAINRALSRIPGTDAPSTDGKRYYQEGFEVLSKGLAAGGWTSVTANNAPDKKNRTFAHAPFMFAGGERNGPLGTYFQTAKKRNNFDVWLNTSVKRVIREGGHITGVEVEPFRDGGYEGIVPVTKVTGRVILSAGTFGSAKILLRSGIGPEDQLEVVAASEKDGPTMIGNSSWINLPVGYNLDDHLNTDTVISHPDVVFYDFYEAWDDPIESDKNSYLESRTGILAQAAPNIGPMFWEEIVGADGIVRQLQWTARVEGSLGAPNGHTMTMSQYLGRGATSRGRMTITPSLTTIVSDVPYLKDPNDKEAVIQGIINLQNALQNVANLTWLFPNSTITPREYVESMVVSPSNRRSNHWMGTNKLGTDDGRKGGSAVVDLDTRVYGTDNLFVIDASIFPGVPTTNPTSYIVVAAEHASSRILALPDLEPVPKYGQCGGREWTGSFVCADGSTCEYQNEWYSQCL
kcat [1]: 9.9 s⁻¹ | kcat/Km [1]: 2.8 M⁻¹ s⁻¹

B2: Myriococcum thermophilum cellobiose dehydrogenase (CDH, SEQ ID NO: 1) variant W316R (Thermothelomyces myriococcoides; W316R) (protein)
chain: B1 chain with L295R
kcat [2]: 1.2 s⁻¹ | kcat/Km [2]: 0.34 M⁻¹ s⁻¹

B3: Myriococcum thermophilum cellobiose dehydrogenase (CDH, SEQ ID NO: 1) variant R622N (Thermothelomyces myriococcoides; R622N) (protein)
chain: B1 chain with L295W, R601N
kcat [3]: 13.1 s⁻¹ | kcat/Km [3]: 6.0 M⁻¹ s⁻¹

B4: Corynascus thermophilus cellobiose dehydrogenase (CDH), recombinant wild type, SEQ ID NO: 7 (Thermothelomyces fergusii) (protein)
chain: QMTEGTYTHEATGITFKTWTPSDGSTFTFGLALPGDALTNDATEYIGLLRCQITDPSSPGYCGISHGQSGQMTQALLLVAWASEDVVYTSFRYATGYTLPELYTGDAKLTQIASSVSGDSFEVLFRCENCFSWDQNGATGSVSTSNGALVLGYAASKSGLTGATCPDTAEFGFHNNGFGQWGAVLEGATSDSYEEWAQLATITPPTTCDGNGPGDKVCVPAPEDTYDYIVVGAGAGGITVADKLSEAGHKVLLIEKGPPSTGLWNGTMKPEWLEGTDLTRFDVPGLCNQIWVDSAGIACTDTDQMAGCVLGGGTAVNAGLWWKPHPADWDDNFPHGWKSSDLADATERVFSRIPGTWHPSQDGKLYRQEGFEVISQGLANAGWREVDANQEPSEKNRTYSHSVFMFSGGERGGPLATYLASAAQRSNFNLWVNTSVRRAIRTGPRVSGVELECLADGGFNGTVNLKEGGGVIFSAGAFGSAKLLLRSGIGPEDQLEIVASSKDGETFISKNDWIKLPVGHNLIDHLNTDLIITHPDVVFYDFYAAWDNPITEDKEAYLNSRSGILAQAAPNIGPLMWEEVTPSDGITRQFQWTCRVEGDSSKTNSTHAMTLSQYLGRGVVSRGRMGITSGLTTTVAEHPYLHNDGDLEAVIQGIQNVVDALSQVPDLEWVLPPPNTTVEEYVNSLIVSPANRRANHWMGTAKMGLDDGRSGGSAVVDLNTKVYGTDNLFVVDASIFPGMSTGNPSAMIVIVAEQAAQRILSLRY
Km [4]: 86.7 mM | Km [5]: 4.08 mM | kcat [5]: 0.50 s⁻¹ | kcat/Km [5]: 120 M⁻¹ s⁻¹
